{"source": "the supplement of paper PMC9112550", "about": "“Optimization of the antimicrobial peptide Bac7 by deep mutational scanning” (BMC Biology, 2022);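 note: peptides expressed intracellularly from a pBAD plasmid library in pooled LB shake-flask culture, induced with 0.3% L-arabinose, DNA abundance read by NGS, three biological replicates, DESeq2 with apeglm shrinkage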", "data": [{"system": "Escherichia coli TOP10", "experiment": "shrunken log2 fold change of peptide-encoding DNA abundance (4.5 h post-induction vs induction); higher = less antimicrobial activity (less host growth inhibition)", "conditions": "time post-induction: 4.5 h; library: site-saturation at positions 5, 18, 19, 20", "values": [{"sequence": "RRIRYRPPRLPRPRPRPGAIPRP", "shrunken log2 fold change": -0.284}, {"sequence": "RRIRPRPPRLPRPRPRPEYRPRP", "shrunken log2 fold change": 0.0278}, {"sequence": "RRIRFRPPRLPRPRPRPMLHPRP", "shrunken log2 fold change": -0.376}, {"sequence": "RRIRERPPRLPRPRPRPIGLPRP", "shrunken log2 fold change": -0.293}, {"sequence": "RRIRFRPPRLPRPRPRPENEPRP", "shrunken log2 fold change": 0.15}, {"sequence": "RRIRHRPPRLPRPRPRPMLGPRP", "shrunken log2 fold change": -0.00277}, {"sequence": "RRIRFRPPRLPRPRPRPHWTPRP", "shrunken log2 fold change": -0.301}, {"sequence": "RRIRYRPPRLPRPRPRPTARPRP", "shrunken log2 fold change": -0.0799}, {"sequence": "RRIRCRPPRLPRPRPRPTSMPRP", "shrunken log2 fold change": -0.308}, {"sequence": "RRIRIRPPRLPRPRPRPFYNPRP", "shrunken log2 fold change": -0.756}, {"sequence": "RRIRLRPPRLPRPRPRPYTTPRP", "shrunken log2 fold change": -0.488}, {"sequence": "RRIRLRPPRLPRPRPRPSHNPRP", "shrunken log2 fold change": -0.735}, {"sequence": "RRIRFRPPRLPRPRPRPAVIPRP", "shrunken log2 fold change": -0.0689}, {"sequence": "RRIRNRPPRLPRPRPRPWHCPRP", "shrunken log2 fold change": -0.116}, {"sequence": "RRIRPRPPRLPRPRPRPITVPRP", "shrunken log2 fold change": -0.298}, {"sequence": "RRIRDRPPRLPRPRPRPIKPPRP", "shrunken log2 fold change": -0.00115}, {"sequence": "RRIRNRPPRLPRPRPRPRWFPRP", "shrunken log2 fold change": 0.173}, {"sequence": "RRIRARPPRLPRPRPRPLRSPRP", "shrunken log2 fold change": 0.914}, {"sequence": "RRIRDRPPRLPRPRPRPGHEPRP", "shrunken log2 fold change": -0.00201}, {"sequence": "RRIRSRPPRLPRPRPRPCKKPRP", "shrunken log2 fold change": -0.121}, {"sequence": "RRIRLRPPRLPRPRPRPTKKPRP", "shrunken log2 fold change": 0.12}, {"sequence": "RRIRNRPPRLPRPRPRPTTAPRP", "shrunken log2 fold change": -0.0817}, {"sequence": "RRIRDRPPRLPRPRPRPTELPRP", "shrunken log2 fold change": 0.103}, {"sequence": "RRIRRRPPRLPRPRPRPNIQPRP", "shrunken log2 fold change": 0.0304}, {"sequence": "RRIRLRPPRLPRPRPRPYGVPRP", "shrunken log2 fold change": -0.107}, {"sequence": "RRIRVRPPRLPRPRPRPYKPPRP", "shrunken log2 fold change": -0.757}, {"sequence": "RRIRYRPPRLPRPRPRPNHVPRP", "shrunken log2 fold change": -0.219}, {"sequence": "RRIRHRPPRLPRPRPRPNFGPRP", "shrunken log2 fold change": 0.00709}, {"sequence": "RRIRKRPPRLPRPRPRPHCSPRP", "shrunken log2 fold change": 0.063}, {"sequence": "RRIRGRPPRLPRPRPRPFFFPRP", "shrunken log2 fold change": 0.696}, {"sequence": "RRIRRRPPRLPRPRPRPSNCPRP", "shrunken log2 fold change": -0.252}, {"sequence": "RRIRVRPPRLPRPRPRPSVVPRP", "shrunken log2 fold change": 0.00363}, {"sequence": "RRIRFRPPRLPRPRPRPQWDPRP", "shrunken log2 fold change": -0.272}, {"sequence": "RRIRVRPPRLPRPRPRPFHNPRP", "shrunken log2 fold change": -0.0884}, {"sequence": "RRIRMRPPRLPRPRPRPGGEPRP", "shrunken log2 fold change": 1}, {"sequence": "RRIRPRPPRLPRPRPRPPGIPRP", "shrunken log2 fold change": 0.151}, {"sequence": "RRIRIRPPRLPRPRPRPDQWPRP", "shrunken log2 fold change": 0.0363}, {"sequence": "RRIRGRPPRLPRPRPRPPINPRP", "shrunken log2 fold change": 0.21}, {"sequence": "RRIRCRPPRLPRPRPRPGSMPRP", "shrunken log2 fold change": -0.24}, {"sequence": "RRIRFRPPRLPRPRPRPARVPRP", "shrunken log2 fold change": 0.319}, {"sequence": "RRIRMRPPRLPRPRPRPAALPRP", "shrunken log2 fold change": 0.292}, {"sequence": "RRIRCRPPRLPRPRPRPNQHPRP", "shrunken log2 fold change": -0.337}, {"sequence": "RRIRCRPPRLPRPRPRPIFTPRP", "shrunken log2 fold change": -0.48}, {"sequence": "RRIRFRPPRLPRPRPRPNKWPRP", "shrunken log2 fold change": -0.266}, {"sequence": "RRIRDRPPRLPRPRPRPMINPRP", "shrunken log2 fold change": 0.0491}, {"sequence": "RRIRMRPPRLPRPRPRPSLEPRP", "shrunken log2 fold change": 0.895}, {"sequence": "RRIRCRPPRLPRPRPRPGHVPRP", "shrunken log2 fold change": 0.0304}, {"sequence": "RRIRRRPPRLPRPRPRPMIHPRP", "shrunken log2 fold change": -0.0319}, {"sequence": "RRIRWRPPRLPRPRPRPVHIPRP", "shrunken log2 fold change": -0.091}, {"sequence": "RRIRWRPPRLPRPRPRPKHRPRP", "shrunken log2 fold change": 0.149}, {"sequence": "RRIRPRPPRLPRPRPRPIMRPRP", "shrunken log2 fold change": -0.0819}, {"sequence": "RRIRWRPPRLPRPRPRPEILPRP", "shrunken log2 fold change": -0.0318}, {"sequence": "RRIRMRPPRLPRPRPRPMPWPRP", "shrunken log2 fold change": 0.169}, {"sequence": "RRIRMRPPRLPRPRPRPGYKPRP", "shrunken log2 fold change": -0.517}, {"sequence": "RRIRIRPPRLPRPRPRPDVCPRP", "shrunken log2 fold change": -0.225}, {"sequence": "RRIRARPPRLPRPRPRPRGDPRP", "shrunken log2 fold change": 3.26}, {"sequence": "RRIRHRPPRLPRPRPRPTHTPRP", "shrunken log2 fold change": -0.00887}, {"sequence": "RRIRDRPPRLPRPRPRPSCQPRP", "shrunken log2 fold change": 0.17}, {"sequence": "RRIRIRPPRLPRPRPRPNGSPRP", "shrunken log2 fold change": 0.0061}, {"sequence": "RRIRHRPPRLPRPRPRPMPTPRP", "shrunken log2 fold change": 0.0549}, {"sequence": "RRIRPRPPRLPRPRPRPYCNPRP", "shrunken log2 fold change": -0.481}, {"sequence": "RRIRNRPPRLPRPRPRPRTTPRP", "shrunken log2 fold change": -0.0126}, {"sequence": "RRIRTRPPRLPRPRPRPWKMPRP", "shrunken log2 fold change": -0.0793}, {"sequence": "RRIRERPPRLPRPRPRPYGHPRP", "shrunken log2 fold change": -0.136}, {"sequence": "RRIRSRPPRLPRPRPRPMDFPRP", "shrunken log2 fold change": -0.215}, {"sequence": "RRIRIRPPRLPRPRPRPHNCPRP", "shrunken log2 fold change": -0.0359}, {"sequence": "RRIRGRPPRLPRPRPRPLQEPRP", "shrunken log2 fold change": 1.56}, {"sequence": "RRIRKRPPRLPRPRPRPKYAPRP", "shrunken log2 fold change": 0.208}, {"sequence": "RRIRQRPPRLPRPRPRPVYNPRP", "shrunken log2 fold change": -0.0538}, {"sequence": "RRIRLRPPRLPRPRPRPSFPPRP", "shrunken log2 fold change": -0.159}, {"sequence": "RRIRDRPPRLPRPRPRPWNAPRP", "shrunken log2 fold change": 0.0296}, {"sequence": "RRIRCRPPRLPRPRPRPMHIPRP", "shrunken log2 fold change": -0.241}, {"sequence": "RRIRFRPPRLPRPRPRPQGTPRP", "shrunken log2 fold change": -0.068}, {"sequence": "RRIRMRPPRLPRPRPRPYFIPRP", "shrunken log2 fold change": -0.413}, {"sequence": "RRIRIRPPRLPRPRPRPKNSPRP", "shrunken log2 fold change": -0.503}, {"sequence": "RRIRYRPPRLPRPRPRPQMCPRP", "shrunken log2 fold change": -0.0257}, {"sequence": "RRIRRRPPRLPRPRPRPVERPRP", "shrunken log2 fold change": -0.049}, {"sequence": "RRIRIRPPRLPRPRPRPDCKPRP", "shrunken log2 fold change": -0.477}, {"sequence": "RRIRVRPPRLPRPRPRPHPEPRP", "shrunken log2 fold change": -0.155}, {"sequence": "RRIRKRPPRLPRPRPRPPYHPRP", "shrunken log2 fold change": 0.0273}, {"sequence": "RRIRQRPPRLPRPRPRPMEDPRP", "shrunken log2 fold change": -0.00192}, {"sequence": "RRIRQRPPRLPRPRPRPTWDPRP", "shrunken log2 fold change": 0.0355}, {"sequence": "RRIRHRPPRLPRPRPRPMSNPRP", "shrunken log2 fold change": 0.00049}, {"sequence": "RRIRIRPPRLPRPRPRPVDKPRP", "shrunken log2 fold change": 0.0266}, {"sequence": "RRIRVRPPRLPRPRPRPFPLPRP", "shrunken log2 fold change": -0.566}, {"sequence": "RRIRIRPPRLPRPRPRPEDAPRP", "shrunken log2 fold change": -0.0131}, {"sequence": "RRIRLRPPRLPRPRPRPWDHPRP", "shrunken log2 fold change": -1.04}, {"sequence": "RRIRRRPPRLPRPRPRPNAMPRP", "shrunken log2 fold change": 0.258}, {"sequence": "RRIRWRPPRLPRPRPRPSLNPRP", "shrunken log2 fold change": -0.0829}, {"sequence": "RRIRIRPPRLPRPRPRPKTHPRP", "shrunken log2 fold change": -0.203}, {"sequence": "RRIRFRPPRLPRPRPRPIIQPRP", "shrunken log2 fold change": -0.786}, {"sequence": "RRIRHRPPRLPRPRPRPSGIPRP", "shrunken log2 fold change": -0.0153}, {"sequence": "RRIRRRPPRLPRPRPRPVSYPRP", "shrunken log2 fold change": 0.241}, {"sequence": "RRIRHRPPRLPRPRPRPVEVPRP", "shrunken log2 fold change": 0.0201}, {"sequence": "RRIRMRPPRLPRPRPRPSQYPRP", "shrunken log2 fold change": -0.191}, {"sequence": "RRIRFRPPRLPRPRPRPFIVPRP", "shrunken log2 fold change": -0.772}, {"sequence": "RRIRSRPPRLPRPRPRPDHFPRP", "shrunken log2 fold change": 0.0963}, {"sequence": "RRIRERPPRLPRPRPRPISQPRP", "shrunken log2 fold change": -0.058}, {"sequence": "RRIRWRPPRLPRPRPRPLGMPRP", "shrunken log2 fold change": -0.156}, {"sequence": "RRIRHRPPRLPRPRPRPPGLPRP", "shrunken log2 fold change": 0.0255}, {"sequence": "RRIRMRPPRLPRPRPRPIQAPRP", "shrunken log2 fold change": 0.295}, {"sequence": "RRIRHRPPRLPRPRPRPRTRPRP", "shrunken log2 fold change": 0.476}, {"sequence": "RRIRARPPRLPRPRPRPRYIPRP", "shrunken log2 fold change": -0.0261}, {"sequence": "RRIRIRPPRLPRPRPRPHRKPRP", "shrunken log2 fold change": -0.551}, {"sequence": "RRIRVRPPRLPRPRPRPYQTPRP", "shrunken log2 fold change": -0.0531}, {"sequence": "RRIRHRPPRLPRPRPRPFMCPRP", "shrunken log2 fold change": -0.57}, {"sequence": "RRIRKRPPRLPRPRPRPQPHPRP", "shrunken log2 fold change": 0.554}, {"sequence": "RRIRPRPPRLPRPRPRPFDHPRP", "shrunken log2 fold change": -0.105}, {"sequence": "RRIRGRPPRLPRPRPRPKCKPRP", "shrunken log2 fold change": 0.51}, {"sequence": "RRIRARPPRLPRPRPRPNTTPRP", "shrunken log2 fold change": -0.164}, {"sequence": "RRIRMRPPRLPRPRPRPVDPPRP", "shrunken log2 fold change": 0.0473}, {"sequence": "RRIRFRPPRLPRPRPRPFNIPRP", "shrunken log2 fold change": -0.429}, {"sequence": "RRIRDRPPRLPRPRPRPHESPRP", "shrunken log2 fold change": -0.0121}, {"sequence": "RRIRFRPPRLPRPRPRPIWEPRP", "shrunken log2 fold change": -0.0122}, {"sequence": "RRIRSRPPRLPRPRPRPPGGPRP", "shrunken log2 fold change": 0.724}, {"sequence": "RRIRMRPPRLPRPRPRPYGGPRP", "shrunken log2 fold change": -1.22}, {"sequence": "RRIRNRPPRLPRPRPRPTMNPRP", "shrunken log2 fold change": -0.134}, {"sequence": "RRIRCRPPRLPRPRPRPWYEPRP", "shrunken log2 fold change": -0.135}, {"sequence": "RRIRGRPPRLPRPRPRPHRNPRP", "shrunken log2 fold change": -0.184}, {"sequence": "RRIRYRPPRLPRPRPRPYKPPRP", "shrunken log2 fold change": -0.0475}, {"sequence": "RRIRWRPPRLPRPRPRPCCTPRP", "shrunken log2 fold change": 0.0894}, {"sequence": "RRIRKRPPRLPRPRPRPSMHPRP", "shrunken log2 fold change": 0.401}, {"sequence": "RRIRMRPPRLPRPRPRPYGPPRP", "shrunken log2 fold change": 0.0478}, {"sequence": "RRIRHRPPRLPRPRPRPCWQPRP", "shrunken log2 fold change": -0.065}, {"sequence": "RRIRARPPRLPRPRPRPESFPRP", "shrunken log2 fold change": 0.807}]}]}
